EC50 and PD-L1/PD-1 blockade assay, EC50 (luciferase in PD-1 effector cells) data for five molecules are collected here from patent US20240218337A1.

The labels stand for the following.
B1: example_7 (protein, part only; not given: Fc, Gas6 trap, linkers, not shown: small tags and cut ends)
chain, part: EVQLQESGPGLVKPSQTLSLTCTVSGYSITSDYWNWIRKPPGKGLEYMGYISYTGSTYYNPSLKSRITISRDTSKNQYSLKLSSVTAADTAVYYCARRGEWLSPFAYWGQGTLVTVSSDIQMTQSPSSLSASVGDRVTITCKSSQSLLYSSNQKNSLAWYQQKPGKAPKLLIYWASTRESGVPSRFSGSGSGTDFTLTISSLQPEDFATYYCQQYYTYPFTFGQGTKLEIK
B2: example_8 (protein, part only; not given: Fc, Gas6 trap, linkers, not shown: small tags and cut ends)
chain, part: B1 chain, part with N35D, K64R, E100G, A106V, S144R, Y149F
B3: example_3 (protein, part only; not given: constant regions, Gas6 trap, linker, not shown: a dimerising Fc or GST; small tags and cut ends)
heavy, part: EVQLQESGPGLVKPSQTLSLTCTVSGYSITSDYWNWIRKPPGKGLEYMGYISYTGSTYYNPSLKSRITISRDTSKNQYSLKLSSVTAADTAVYYCARRGEWLSPFAYWGQGTLVTVSS
light: DIQMTQSPSSLSASVGDRVTITCKSSQSLLYSSNQKNSLAWYQQKPGKAPKLLIYWASTRESGVPSRFSGSGSGTDFTLTISSLQPEDFATYYCQQYYTYPFTFGQGTKLEIK
B4: example_5 (protein, part only; not given: constant regions, Gas6 trap, linker, not shown: a dimerising Fc or GST; small tags and cut ends)
heavy, part: B3 heavy, part with N35D, K64R, E100G, A106V
light: B3 light with S26R, Y31F

Numbering of substitutions follows the chain as printed.

As a reminder, the EC50 is the concentration giving half of the maximal effect.

One experiment has as its target human Gas6 recombinant protein (human) (UniProt Q14393). Description: ELISA, plate-coated test molecule, serially diluted hGas6. On the technique in general: ELISA stands for enzyme-linked immunosorbent assay.
UniProt Q14393, sequence (Q14393 49-678 limits assumed): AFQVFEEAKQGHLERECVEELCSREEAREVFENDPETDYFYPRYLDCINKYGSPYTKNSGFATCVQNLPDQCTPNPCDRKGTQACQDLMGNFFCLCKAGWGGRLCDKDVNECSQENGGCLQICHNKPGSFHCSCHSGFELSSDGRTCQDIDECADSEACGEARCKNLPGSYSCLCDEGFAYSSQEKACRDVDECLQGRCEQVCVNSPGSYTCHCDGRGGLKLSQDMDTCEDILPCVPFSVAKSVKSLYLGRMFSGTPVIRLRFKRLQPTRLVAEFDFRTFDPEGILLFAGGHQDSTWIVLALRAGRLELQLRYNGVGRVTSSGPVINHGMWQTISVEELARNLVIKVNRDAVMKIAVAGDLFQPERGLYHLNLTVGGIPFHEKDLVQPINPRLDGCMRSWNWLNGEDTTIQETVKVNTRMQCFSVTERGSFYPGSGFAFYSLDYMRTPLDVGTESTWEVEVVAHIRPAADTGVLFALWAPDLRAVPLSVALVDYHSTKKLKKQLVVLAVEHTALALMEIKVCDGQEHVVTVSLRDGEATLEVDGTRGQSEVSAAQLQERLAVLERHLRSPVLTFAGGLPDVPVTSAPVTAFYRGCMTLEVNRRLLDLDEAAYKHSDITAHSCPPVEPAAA
Consider Axl-Fc (Fc fusion), for which the half-maximal effective concentration (EC50) is below 3 nM.

A further experiment addresses Recombinant human PD-L1 protein (human) (UniProt Q9NZQ7). In words: ELISA, plate-coated recombinant human PD-L1, anti-human IgG-HRP.
On to B1, for which the EC50 is below 0.1 nM.

Turning to B2, the half-maximal effective concentration (EC50) is below 0.1 nM.

As to B3, the EC50 was below 0.1 nM.

For B4, the EC50 is below 0.1 nM.

For a further experiment, the target named is PD-L1 on PD-L1 aAPC/CHO-K1 cells (human) (UniProt Q9NZQ7). Description: cell-based or functional assay.
In the case of B1, the PD-L1/PD-1 blockade assay, EC50 (luciferase in PD-1 effector cells) was below 3 nM.

Molecule B2 registered a PD-L1/PD-1 blockade assay, EC50 (luciferase in PD-1 effector cells) below 3 nM.

B3 displayed a PD-L1/PD-1 blockade assay, EC50 (luciferase in PD-1 effector cells) below 3 nM.

Molecule B4 came in with a PD-L1/PD-1 blockade assay, EC50 (luciferase in PD-1 effector cells) below 3 nM.
